This is an account of results in article doi:10.1101/2022.09.26.507364 (bioRxiv, 2022).

One may read the Kd as the free concentration of one partner at which half of the binding sites on the other are occupied at equilibrium, for simple one-to-one binding.

The test concerns the target T1, Long neurotoxin 1 (3L21_OXYSC) from O. scutellatus scutellatus (coastal taipan), recombinant long 3FTX (Oxyuranus scutellatus scutellatus).
T1 chain: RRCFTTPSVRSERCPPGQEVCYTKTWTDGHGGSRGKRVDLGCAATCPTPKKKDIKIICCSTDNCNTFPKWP
Description: SPR. Background: In SPR one partner is held on a chip, and binding of the other changes the refractive index at the surface.

B1: Centi-3FTX-D09 (antibody, V domains shown)
VH: EVQLVESGGGFVQPGGSLRLSCAASGFTFSNFDMHWVRQSPGKGLEWVSGLDHSGGAHYAGSVKGRFTISREDAKNSLDLQMNNLRVDDTAVYFCVRGTLYHYTSGSYYSDAFDIWGQGTLVTVSS
VL: EIVLTQSPSSLSASVGDRVTITCQASQDISNYLNWYQQKPGKAPKLLIYAASSLESGVPSRFSGSGSGTDFTLTISSQQPEDFATYYCQQANSFPYTFGQGTKVEIK
Turning to B1, the Kd is 0.49 nM.
